Positions count from the first letter of the chain named. In names and notes the source's numbering stands.
B1: Human peroxiredoxin 2 C172W mutant, reduced (enzyme, UniProt P32119 2-198, looked up)
chain: ASGNARIGKPAPDFKATAVVDGAFKEVKLSDYKGKYVVLFFYPLDFTFVCPTEIIAFSNRAEDFRKLGCEVLGVSVDSQFTHLAWINTPRKEGGLGPLNIPLLADVTRRLSEDYGVLKTDEGIAYRGLFIIDGKGVLRQITVNDLPVGRSVDEALRLVQAFQYTDEHGEVWPAGWKPGSDTIKPNVDDSKEYFSKHN
B2: Human peroxiredoxin 2 C172D mutant, reduced (enzyme, UniProt P32119 2-198, looked up)
chain: B1 chain with W171D
B3: Human peroxiredoxin 2 C172S mutant, reduced (enzyme, UniProt P32119 2-198, looked up)
chain: B1 chain with W171S
B4: Human peroxiredoxin 2, recombinant wild type, hyperoxidized (CP sulfinate) form (enzyme, UniProt P32119 2-198, looked up)
chain: B1 chain with W171C
modifications: Cys51 (CP) sulfinate

Assays:
SEC = target: the molecule itself; assay: SEC
SEC-MALS = target: the molecule itself; assay: SEC-MALS
AUC = target: the molecule itself; assay: AUC
crystal structure = target: the molecule itself; assay: crystal structure

Row | Protein | percent decamer (SEC) | stoichiometry N (SEC-MALS) | stoichiometry N (AUC) | stoichiometry N (crystal structure)
1 | B1 | 62% | 10 |  | 
2 | B2 | 45% |  | 10 | 
3 | B3 | 60% |  | 10 | 
4 | B4 |  |  |  | 10

Reference: paper PMC8049995 (The Journal of Biological Chemistry, 2021)
